FireProtDB (doi:10.1021/bi049405c)
“And” between values parts separate entries of the source, which are not always exact repeats. Equal entries are not always repeated.

Settings: Escherichia coli (strain K12); pH 7.6; 25 °C; GdnHCl; CD; HEPES 10 mM; KCl 100 mM; transition: 3; reversible: yes; whole UniProt chain shown

B1: Nickel-responsive regulator wild type, P0A6Z6 (protein)
chain: MQRVTITLDDDLLETLDSLSQRRGYNNRSEAIRDILRSALAQEATQQHGTQGFAVLSYVYEHEKRDLASRIVSTQHHHHDLSVATLHVHINHDDCLEIAVLKGDMGDVQHFADDVIAQRGVRHGHLQCLPKED
- denaturant midpoint (higher = more stable): 1.2 M and 2.8 M
